Data reported in the supplement of paper PMC10724198.
± gives the standard deviation of the averaged measurements.

Assays:
[1] = test system: Saccharomyces cerevisiae; assay: protein stability index of tFT-peptide fusion (C-terminal peptide) (PSI (0-1 scale)); higher = more stable (slower turnover)
Procedure: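 MPS profiling in S. cerevisiae of the tFT-X12 degron library: putative degron peptides plus stable controls, 12 aa, fused to the C-terminus of a sfGFP-mCherry timer. Cells are FACS-sorted into 8 mCherry/sfGFP bins and deep-sequenced. PSI runs from 0 (unstable) to 1 (stable). Backgrounds are wild type, das1Δ and doa10Δ at 30 °C, and wild type, das1Δ, cdc34-1 and cdc53-1 at 37 °C; 2-3 technical replicates each.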

[2] = test system: Saccharomyces cerevisiae; assay: as above; conditions: genetic background: wild type; temperature: 30 C
[3] = genetic background: cdc34-1, temperature: 37 C
[4] = genetic background: cdc53-1, temperature: 37 C
[5] = genetic background: das1 deletion, temperature: 30 C
[6] = genetic background: das1 deletion, temperature: 37 C
[7] = genetic background: doa10 deletion, temperature: 30 C
[8] = genetic background: wild type, temperature: 30 C
[9] = genetic background: wild type, temperature: 37 C
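Further: PSI is a weighted mean of sequencing reads over stability bins, variants kept only with over 10 reads, mCherry proximal and sfGFP distal, peptide attached via GGGS linker.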

| Sequence | protein stability index [1, 3] | protein stability index [1, 4] | protein stability index [1, 5] | protein stability index [1, 6] | protein stability index [1, 7] | protein stability index [1, 8] | protein stability index [1, 9] | protein stability index [2] |
| --- | --- | --- | --- | --- | --- | --- | --- | --- |
| LKCFLVLTFWFS | 0.187 ± 0.045 | 0.231 ± 0.012 | 0.222 ± 0.028 | 0.367 ± 0.018 | 0.184 ± 0.021 | 0.194 ± 0.027 | 0.3 ± 0.0095 | 0.263 ± 0.0049 |
| LLHFVLYFLSCT | 0.51 ± 0.057 | 0.548 ± 0.0012 | 0.442 ± 0.03 | 0.5554 ± 0.0051 | 0.42 ± 0.03 | 0.434 ± 0.01 | 0.549 ± 0.012 | 0.456 ± 0.018 |
| LLHQSVHSHIPP | 0.637 ± 0.0097 | 0.72 ± 0.013 | 0.638 ± 0.022 | 0.733 ± 0.021 | 0.641 ± 0.018 | 0.641 ± 0.024 | 0.6911 ± 0.0067 | 0.534 ± 0.052 |
| LLILSLLVLSSR | 0.244 ± 0.022 | 0.348 ± 0.024 | 0.241 ± 0.021 | 0.42 ± 0.0046 | 0.2034 ± 0.00063 | 0.229 ± 0.036 | 0.37 ± 0.011 | 0.326 ± 0.0076 |
| LLLCVVLVSVFG | 0.0374 ± 0.0057 | 0.0791 ± 0.044 | 0.122 ± 0.025 | 0.174 ± 0.02 | 0.0854 ± 0.0049 | 0.102 ± 0.023 | 0.134 ± 0.027 | 0.18 ± 0.0041 |
| LLLFSFAALANF | 0.539 ± 0.059 | 0.545 ± 0.017 | 0.398 ± 0.022 | 0.5592 ± 0.0013 | 0.245 ± 0.0066 | 0.283 ± 0.018 | 0.466 ± 0.02 | 0.347 ± 0.0064 |
| LLLFTPFYLLLR | 0.0987 ± 0.033 | 0.0767 ± 0.0017 | 0.218 ± 0.021 | 0.27 ± 0.0065 | 0.525 ± 0.015 | 0.188 ± 0.037 | 0.219 ± 0.016 | 0.305 ± 0.011 |
| LLLPVFRFFFVN | 0.468 ± 0.032 | 0.632 ± 0.065 | 0.554 ± 0.026 | 0.672 ± 0.021 | 0.0849 ± 0.023 | 0.109 ± 0.007 | 0.143 ± 0.0049 | 0.203 ± 0.04 |
| LLRFFPCFLGVN | 0.653 ± 0.018 | 0.6962 ± 0.0039 | 0.657 ± 0.043 | 0.701 ± 0.012 | 0.43 ± 0.023 | 0.425 ± 0.032 | 0.579 ± 0.021 | 0.484 ± 0.022 |
| LLTAARAQLFAV | 0.65 ± 0.0086 | 0.704 ± 0.029 | 0.578 ± 0.016 | 0.7 ± 0.022 | 0.457 ± 0.013 | 0.477 ± 0.019 | 0.6168 ± 0.0014 | 0.503 ± 0.046 |
| LLVSVVFVSRFF | 0.378 ± 0.024 | 0.465 ± 0.075 | 0.272 ± 0.038 | 0.514 ± 0.0092 | 0.213 ± 0.0049 | 0.251 ± 0.035 | 0.444 ± 0.006 | 0.387 ± 0.053 |
| LLWALGLVLVEG | 0.152 ± 0.033 | 0.193 ± 0.026 | 0.217 ± 0.022 | 0.2919 ± 0.0014 | 0.171 ± 0.0078 | 0.204 ± 0.029 | 0.281 ± 0.015 | 0.377 ± 0.029 |
| LNLACCWFVRCR | 0.311 ± 0.035 | 0.339 ± 0.011 | 0.253 ± 0.035 | 0.4215 ± 0.00083 | 0.2269 ± 0.00044 | 0.261 ± 0.021 | 0.399 ± 0.015 | 0.349 ± 0.03 |
| LNSSVLRLRFFV | 0.542 ± 0.027 | 0.739 ± 0.063 | 0.607 ± 0.037 | 0.756 ± 0.04 | 0.0882 ± 0.011 | 0.098 ± 0.024 | 0.152 ± 0.041 | 0.2643 ± 0.0019 |
| LPLCGLLLFLFF | 0.472 ± 0.024 | 0.5394 ± 0.0043 | 0.433 ± 0.024 | 0.5302 ± 0.0025 | 0.42 ± 0.024 | 0.42 ± 0.015 | 0.492 ± 0.022 | 0.435 ± 0.0059 |
| LPLQPPPPVCLP | 0.65583 ± 3.7e-05 | 0.7163 ± 0.0065 | 0.629 ± 0.024 | 0.7199 ± 0.0036 | 0.634 ± 0.031 | 0.644 ± 0.018 | 0.69 ± 0.011 | 0.376 ± 0.022 |
| LPPFGLFLFVFI | 0.437 ± 0.034 | 0.466 ± 0.0094 | 0.31 ± 0.044 | 0.517 ± 0.0074 | 0.274 ± 0.008 | 0.285 ± 0.029 | 0.498 ± 0.01 | 0.366 ± 0.018 |
| LPPSTFLLHFLL | 0.667 ± 0.046 | 0.714 ± 0.011 | 0.656 ± 0.013 | 0.744 ± 0.0099 | 0.218 ± 0.018 | 0.232 ± 0.026 | 0.415 ± 0.0062 | 0.317 ± 0.0077 |
| LPTGLKTFLIAF | 0.481 ± 0.0085 | 0.485 ± 0.031 | 0.414 ± 0.025 | 0.541 ± 0.026 | 0.374 ± 0.0094 | 0.405 ± 0.027 | 0.519 ± 0.0071 | 0.461 ± 0.02 |
| LPVPARPFPPSS | 0.662 ± 0.027 | 0.713 ± 0.0083 | 0.684 ± 0.024 | 0.711 ± 0.014 | 0.705 ± 0.031 | 0.688 ± 0.021 | 0.6907 ± 0.0012 | 0.714 ± 0.0095 |

| Sequence | protein stability index [1, 3] | protein stability index [1, 4] | protein stability index [1, 5] | protein stability index [1, 6] | protein stability index [1, 7] | protein stability index [1, 8] | protein stability index [1, 9] | protein stability index [2] |
| --- | --- | --- | --- | --- | --- | --- | --- | --- |
| LQSYVSRLVRLS | 0.618 ± 0.082 | 0.745 ± 0.027 | 0.653 ± 0.041 | 0.7356 ± 0.00043 | 0.191 ± 0.0033 | 0.186 ± 0.036 | 0.359 ± 0.055 | 0.295 ± 0.015 |
| LRFFLPFLLSLP | 0.519 ± 0.043 | 0.596 ± 0.015 | 0.55 ± 0.036 | 0.6588 ± 0.0031 | 0.158 ± 0.0035 | 0.164 ± 0.022 | 0.292 ± 0.0041 | 0.2418 ± 0.0021 |
| LRFSLLRVGWLC | 0.652 ± 0.053 | 0.681 ± 0.017 | 0.58 ± 0.0099 | 0.732 ± 0.022 | 0.28 ± 0.0089 | 0.336 ± 0.037 | 0.561 ± 0.011 | 0.434 ± 0.0087 |
| LRGIVSVWILRA | 0.501 ± 0.034 | 0.56 ± 0.0093 | 0.441 ± 0.017 | 0.605 ± 0.0076 | 0.149 ± 0.0028 | 0.148 ± 0.0039 | 0.282 ± 0.0057 | 0.249 ± 0.025 |
| LRLLSLIPPLSC | 0.494 ± 0.022 | 0.535 ± 0.05 | 0.381 ± 0.039 | 0.53 ± 0.016 | 0.34 ± 0.011 | 0.385 ± 0.026 | 0.52 ± 0.011 | 0.467 ± 0.0065 |
| LRSPCALVLLLI | 0.495 ± 0.022 | 0.5317 ± 0.0035 | 0.376 ± 0.029 | 0.556 ± 0.0056 | 0.213 ± 0.0037 | 0.237 ± 0.024 | 0.441 ± 0.0051 | 0.336 ± 0.0096 |
| LSAVISLRIQLS | 0.595 ± 0.093 | 0.603 ± 0.051 | 0.518 ± 0.032 | 0.546 ± 0.0071 | 0.3636 ± 0.0016 | 0.379 ± 0.04 | 0.4919 ± 0.0018 | 0.449 ± 0.021 |
| LSFFICSFFFVL | 0.514 ± 0.045 | 0.556 ± 0.014 | 0.456 ± 0.03 | 0.5798 ± 0.0013 | 0.344 ± 0.006 | 0.361 ± 0.021 | 0.5113 ± 0.0012 | 0.408 ± 0.013 |
| LSFLSLIFSICY | 0.43162 ± 0.0004 | 0.449 ± 0.054 | 0.356 ± 0.021 | 0.526 ± 0.066 | 0.355 ± 0.0012 | 0.333 ± 0.037 | 0.474 ± 0.012 | 0.461 ± 0.022 |
| LSGDIPWSFVPV | 0.743 ± 0.04 | 0.766 ± 0.046 | 0.654 ± 0.011 | 0.787 ± 0.02 | 0.673 ± 0.028 | 0.677 ± 0.031 | 0.75756 ± 0.0002 | 0.738 ± 0.033 |
| LSIGCRCLWGWF | 0.718 ± 0.029 | 0.7548 ± 0.004 | 0.631 ± 0.013 | 0.762 ± 0.022 | 0.577 ± 0.009 | 0.5967 ± 0.0059 | 0.708 ± 0.026 | 0.465 ± 0.051 |
| LSLCPVHRLLVL | 0.558 ± 0.02 | 0.632 ± 0.032 | 0.481 ± 0.025 | 0.624 ± 0.007 | 0.358 ± 0.0063 | 0.379 ± 0.034 | 0.5327 ± 0.0015 | 0.498 ± 0.03 |
| LSLSPRLPRLVA | 0.613 ± 0.015 | 0.659 ± 0.018 | 0.537 ± 0.014 | 0.663 ± 0.0015 | 0.156 ± 0.0087 | 0.197 ± 0.023 | 0.377 ± 0.026 | 0.283 ± 0.038 |
| LSRFGSTCPSGL | 0.72 ± 0.038 | 0.7696 ± 0.0062 | 0.642 ± 0.011 | 0.765 ± 0.032 | 0.6358 ± 0.0032 | 0.638 ± 0.012 | 0.7477 ± 0.0031 | 0.724 ± 0.0079 |
| LSRHLILFIVIR | 0.0962 ± 0.042 | 0.0846 ± 0.02 | 0.172 ± 0.014 | 0.2805 ± 0.0024 | 0.289 ± 0.019 | 0.174 ± 0.019 | 0.2008 ± 0.00073 | 0.272 ± 0.036 |
| LSVYFSLSLCVS | 0.363 ± 0.014 | 0.451 ± 0.0063 | 0.384 ± 0.025 | 0.462 ± 0.011 | 0.392 ± 0.0084 | 0.399 ± 0.017 | 0.429 ± 0.017 | 0.448 ± 0.02 |
| LTCTSTPMACRV | 0.562 ± 0.067 | 0.589 ± 0.021 | 0.443 ± 0.026 | 0.596 ± 0.011 | 0.429 ± 0.015 | 0.475 ± 0.013 | 0.5859 ± 0.0028 | 0.452 ± 0.0075 |
| LVCLPVGFFLMW | 0.565 ± 0.084 | 0.638 ± 0.0074 | 0.47 ± 0.034 | 0.634 ± 0.0072 | 0.388 ± 0.0045 | 0.411 ± 0.013 | 0.576 ± 0.0068 | 0.4899 ± 0.0037 |
| LVCLVFVRSSLV | 0.268 ± 0.0043 | 0.571 ± 0.079 | 0.25 ± 0.024 | 0.529 ± 0.0096 | 0.205 ± 0.0029 | 0.232 ± 0.038 | 0.457 ± 0.017 | 0.339 ± 0.022 |
